# Data as given in US20190359653A1 (Genentech, published 2019).
# * marks the point of attachment. Palmitoyl = CCCCCCCCCCCCCCCC(=O)*; Myristoyl = CCCCCCCCCCCCCC(=O)*; Lauroyl = CCCCCCCCCCCC(=O)*; Decanoyl = CCCCCCCCCC(=O)*; Octanoyl = CCCCCCCC(=O)*
# Biological target: T1, FZD7 receptor of HEK293-TB cells (human, UniProt O75084 33-574)
# Assay: cell-based or functional assay
row,Binder,"Best Fit IC50 (nM), Wnt3a-mediated β-catenin signaling in HEK293-TB cells (50 ng/mL mWnt3a)"
1,Ac-SDDLEFWCHVK(Lauroyl)Y-NH2 (also: dimer via disulfide bond at Cys8) [dFz7-21Δ2.M13K (C12)],553 nM
2,Ac-SDDLEFWCHVK(Decanoyl)Y-NH2 (also: dimer via disulfide bond at Cys8) [dFz7-21Δ2.M13K (C10)],1500 nM
3,Ac-SDDLEFWCHVK(Myristoyl)Y-NH2 (also: dimer via disulfide bond at Cys8) [dFz7-21Δ2.M13K (C14)],607 nM
4,Ac-SDDLEFWCHVK(Octanoyl)Y-NH2 (also: dimer via disulfide bond at Cys8) [dFz7-21Δ2.M13K (C8)],2130 nM
5,Ac-SDDLEFWCHVK(Palmitoyl)Y-NH2 (also: dimer via disulfide bond at Cys8) [dFz7-21Δ2.M13K (C16)],607 nM

# Biological target: T1, FZD7 receptor of HEK293-TB cells
# Assay: cell-based or functional assay
# Remark: another data set of the same source
Binder,"IC50 (nM), TOPbrite reporter assay in HEK293-TB cells stimulated with mWnt3a (50 ng/mL)",Reduction in fold potency vs. dimer
Ac-LPSDDLEFACHVMY-NH2 (also: homodimer via Cys10 disulfide) [dFz7-21-W9A],640 nM,58 fold
Ac-LPSDDLEFWCHVAY-NH2 (also: homodimer via Cys10 disulfide) [dFz7-21-M13A],913 nM,82 fold
Ac-LPSDDLEFWCHVMA-NH2 (also: homodimer via Cys10 disulfide) [dFz7-21-Y14A],2960 nM,267 fold
Ac-LPSDDAEFWCHVMY-NH2 (also: homodimer via Cys10 disulfide) [dFz7-21-L6A],7120 nM,642 fold
